From the supplement of paper PMC9112550, “Optimization of the antimicrobial peptide Bac7 by deep mutational scanning” (BMC Biology, 2022)

Tested on: Escherichia coli TOP10
Experiment: shrunken log2 fold change of peptide-encoding DNA abundance (4.5 h post-induction vs induction); higher = less antimicrobial activity (less host growth inhibition)
Conditions: time post-induction: 4.5 h; library: site-saturation at positions 5, 18, 19, 20
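Further: peptides expressed intracellularly from a pBAD plasmid library in pooled LB shake-flask culture, induced with 0.3% L-arabinose, DNA abundance read by NGS, three biological replicates, DESeq2 with apeglm shrinkage.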

## RRIRNRPPRLPRPRPRPCRAPRP
  shrunken log2 fold change: -0.0439

## RRIRFRPPRLPRPRPRPIICPRP
  shrunken log2 fold change: 0.12

## RRIRWRPPRLPRPRPRPQLPPRP
  shrunken log2 fold change: -0.00654

## RRIRCRPPRLPRPRPRPLSFPRP
  shrunken log2 fold change: -0.398

## RRIRNRPPRLPRPRPRPPMSPRP
  shrunken log2 fold change: -0.0527

## RRIRGRPPRLPRPRPRPYQFPRP
  shrunken log2 fold change: -0.297

## RRIRCRPPRLPRPRPRPEWDPRP
  shrunken log2 fold change: 0.309

## RRIRPRPPRLPRPRPRPMIAPRP
  shrunken log2 fold change: -0.0488

## RRIRCRPPRLPRPRPRPFTFPRP
  shrunken log2 fold change: -0.351

## RRIRARPPRLPRPRPRPTGRPRP
  shrunken log2 fold change: 0.215

## RRIRTRPPRLPRPRPRPDVSPRP
  shrunken log2 fold change: -0.223

## RRIRGRPPRLPRPRPRPGDYPRP
  shrunken log2 fold change: 0.199

## RRIRVRPPRLPRPRPRPTCNPRP
  shrunken log2 fold change: -0.233

## RRIRPRPPRLPRPRPRPQYRPRP
  shrunken log2 fold change: -0.105

## RRIRQRPPRLPRPRPRPTCDPRP
  shrunken log2 fold change: -0.116

## RRIRERPPRLPRPRPRPHKYPRP
  shrunken log2 fold change: -0.902

## RRIRARPPRLPRPRPRPYVSPRP
  shrunken log2 fold change: -0.0383

## RRIRKRPPRLPRPRPRPTHEPRP
  shrunken log2 fold change: 0.267

## RRIRQRPPRLPRPRPRPSMKPRP
  shrunken log2 fold change: -0.166

## RRIRLRPPRLPRPRPRPMHPPRP
  shrunken log2 fold change: -0.0318

## RRIRKRPPRLPRPRPRPHVHPRP
  shrunken log2 fold change: -0.105

## RRIRMRPPRLPRPRPRPMKNPRP
  shrunken log2 fold change: 0.328

## RRIRNRPPRLPRPRPRPCAKPRP
  shrunken log2 fold change: -0.0333

## RRIRFRPPRLPRPRPRPHFCPRP
  shrunken log2 fold change: -1.02

## RRIRFRPPRLPRPRPRPQVPPRP
  shrunken log2 fold change: -0.144

## RRIRQRPPRLPRPRPRPPHVPRP
  shrunken log2 fold change: 0.15

## RRIRTRPPRLPRPRPRPTWAPRP
  shrunken log2 fold change: -0.117

## RRIRKRPPRLPRPRPRPCSSPRP
  shrunken log2 fold change: -0.0581

## RRIRMRPPRLPRPRPRPRWEPRP
  shrunken log2 fold change: 0.814

## RRIRERPPRLPRPRPRPDIMPRP
  shrunken log2 fold change: -0.196

## RRIRIRPPRLPRPRPRPMNIPRP
  shrunken log2 fold change: -0.0512

## RRIRERPPRLPRPRPRPTFPPRP
  shrunken log2 fold change: -0.44

## RRIRSRPPRLPRPRPRPNWVPRP
  shrunken log2 fold change: -0.214

## RRIRHRPPRLPRPRPRPMLVPRP
  shrunken log2 fold change: -0.155

## RRIRDRPPRLPRPRPRPTNMPRP
  shrunken log2 fold change: -0.00949

## RRIRERPPRLPRPRPRPQWRPRP
  shrunken log2 fold change: -0.0529

## RRIRGRPPRLPRPRPRPHTDPRP
  shrunken log2 fold change: 0.103

## RRIRSRPPRLPRPRPRPNMCPRP
  shrunken log2 fold change: -0.138

## RRIRTRPPRLPRPRPRPANHPRP
  shrunken log2 fold change: -0.179

## RRIRTRPPRLPRPRPRPVWQPRP
  shrunken log2 fold change: 0.256

## RRIRYRPPRLPRPRPRPGNAPRP
  shrunken log2 fold change: 0.0744

## RRIRCRPPRLPRPRPRPFHMPRP
  shrunken log2 fold change: -0.36

## RRIRERPPRLPRPRPRPFKMPRP
  shrunken log2 fold change: -0.559

## RRIRHRPPRLPRPRPRPHHQPRP
  shrunken log2 fold change: -0.364

## RRIRARPPRLPRPRPRPLFTPRP
  shrunken log2 fold change: 0.0936

## RRIRSRPPRLPRPRPRPSSHPRP
  shrunken log2 fold change: -0.0982

## RRIRTRPPRLPRPRPRPGTPPRP
  shrunken log2 fold change: 0.0833

## RRIRTRPPRLPRPRPRPLHMPRP
  shrunken log2 fold change: -0.369

## RRIRARPPRLPRPRPRPNYWPRP
  shrunken log2 fold change: 0.0678

## RRIRIRPPRLPRPRPRPQDCPRP
  shrunken log2 fold change: 0.00138

## RRIRARPPRLPRPRPRPTIGPRP
  shrunken log2 fold change: 0.176

## RRIRWRPPRLPRPRPRPWKAPRP
  shrunken log2 fold change: -0.00884

## RRIRLRPPRLPRPRPRPSMWPRP
  shrunken log2 fold change: 0.0718

## RRIRLRPPRLPRPRPRPYSWPRP
  shrunken log2 fold change: -0.176

## RRIRVRPPRLPRPRPRPIIQPRP
  shrunken log2 fold change: -0.28

## RRIRQRPPRLPRPRPRPMYGPRP
  shrunken log2 fold change: -0.0233

## RRIRRRPPRLPRPRPRPMTFPRP
  shrunken log2 fold change: 0.164

## RRIRMRPPRLPRPRPRPMERPRP
  shrunken log2 fold change: -0.0334

## RRIRDRPPRLPRPRPRPSEFPRP
  shrunken log2 fold change: -0.0277

## RRIRSRPPRLPRPRPRPIMAPRP
  shrunken log2 fold change: 0.163

## RRIRMRPPRLPRPRPRPLVSPRP
  shrunken log2 fold change: 0.162

## RRIRIRPPRLPRPRPRPALFPRP
  shrunken log2 fold change: -0.139

## RRIRLRPPRLPRPRPRPPPMPRP
  shrunken log2 fold change: 0.966

## RRIRTRPPRLPRPRPRPGFNPRP
  shrunken log2 fold change: -0.234

## RRIRRRPPRLPRPRPRPVGPPRP
  shrunken log2 fold change: -0.0193

## RRIRTRPPRLPRPRPRPKGSPRP
  shrunken log2 fold change: -0.0414

## RRIRQRPPRLPRPRPRPEKYPRP
  shrunken log2 fold change: -0.304

## RRIRGRPPRLPRPRPRPAARPRP
  shrunken log2 fold change: 1.16

## RRIRPRPPRLPRPRPRPACGPRP
  shrunken log2 fold change: 0.839

## RRIRWRPPRLPRPRPRPYRPPRP
  shrunken log2 fold change: -0.573

## RRIRMRPPRLPRPRPRPNSYPRP
  shrunken log2 fold change: -0.0962

## RRIRVRPPRLPRPRPRPIFTPRP
  shrunken log2 fold change: -0.0783

## RRIRCRPPRLPRPRPRPNMRPRP
  shrunken log2 fold change: 0.357

## RRIRLRPPRLPRPRPRPPIEPRP
  shrunken log2 fold change: -0.424

## RRIRCRPPRLPRPRPRPTGCPRP
  shrunken log2 fold change: -0.0358

## RRIRYRPPRLPRPRPRPMIIPRP
  shrunken log2 fold change: -0.138

## RRIRHRPPRLPRPRPRPVTTPRP
  shrunken log2 fold change: 0.0639

## RRIRRRPPRLPRPRPRPQWFPRP
  shrunken log2 fold change: -0.076

## RRIRARPPRLPRPRPRPCWEPRP
  shrunken log2 fold change: 0.755

## RRIRGRPPRLPRPRPRPGPVPRP
  shrunken log2 fold change: 1.24

## RRIRWRPPRLPRPRPRPSIIPRP
  shrunken log2 fold change: -0.31

## RRIRWRPPRLPRPRPRPYHIPRP
  shrunken log2 fold change: -0.96

## RRIRYRPPRLPRPRPRPDACPRP
  shrunken log2 fold change: -0.045

## RRIRYRPPRLPRPRPRPYAWPRP
  shrunken log2 fold change: -0.14

## RRIRFRPPRLPRPRPRPFLIPRP
  shrunken log2 fold change: -0.304

## RRIRQRPPRLPRPRPRPAAGPRP
  shrunken log2 fold change: 0.0657

## RRIRDRPPRLPRPRPRPSNPPRP
  shrunken log2 fold change: -0.281

## RRIRPRPPRLPRPRPRPQIQPRP
  shrunken log2 fold change: -0.286

## RRIRRRPPRLPRPRPRPFRKPRP
  shrunken log2 fold change: -0.00961

## RRIRSRPPRLPRPRPRPMYVPRP
  shrunken log2 fold change: -0.84

## RRIRRRPPRLPRPRPRPDRHPRP
  shrunken log2 fold change: -0.0411
